In patent publication US20100150834A1 (BURNHAM INSTITUTE, published 2010):

T1: EphB4 (receptor of Table 1) (Mus musculus (Mouse), UniProt P54761 16-539)
T1 sequence: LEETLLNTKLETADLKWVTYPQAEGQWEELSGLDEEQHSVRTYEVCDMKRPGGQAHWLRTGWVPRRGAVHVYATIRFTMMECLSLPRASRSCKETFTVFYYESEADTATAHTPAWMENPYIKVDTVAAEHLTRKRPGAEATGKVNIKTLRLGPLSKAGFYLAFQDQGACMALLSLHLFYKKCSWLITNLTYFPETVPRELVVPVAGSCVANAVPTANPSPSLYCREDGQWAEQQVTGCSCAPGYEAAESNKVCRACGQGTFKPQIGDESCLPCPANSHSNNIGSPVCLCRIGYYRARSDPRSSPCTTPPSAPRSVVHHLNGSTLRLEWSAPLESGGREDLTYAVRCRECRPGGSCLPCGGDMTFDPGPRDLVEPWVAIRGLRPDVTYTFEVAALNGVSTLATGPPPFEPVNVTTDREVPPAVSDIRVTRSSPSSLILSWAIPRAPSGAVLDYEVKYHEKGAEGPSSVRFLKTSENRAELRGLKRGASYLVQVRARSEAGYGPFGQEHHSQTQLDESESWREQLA

T2: murine EphB4 ectodomain (murine, UniProt P54761 16-539)
T2 construct: extracellular domain; Coated on wells; also called immobilized EphB4 receptor ectodomain
T2 sequence (looked up): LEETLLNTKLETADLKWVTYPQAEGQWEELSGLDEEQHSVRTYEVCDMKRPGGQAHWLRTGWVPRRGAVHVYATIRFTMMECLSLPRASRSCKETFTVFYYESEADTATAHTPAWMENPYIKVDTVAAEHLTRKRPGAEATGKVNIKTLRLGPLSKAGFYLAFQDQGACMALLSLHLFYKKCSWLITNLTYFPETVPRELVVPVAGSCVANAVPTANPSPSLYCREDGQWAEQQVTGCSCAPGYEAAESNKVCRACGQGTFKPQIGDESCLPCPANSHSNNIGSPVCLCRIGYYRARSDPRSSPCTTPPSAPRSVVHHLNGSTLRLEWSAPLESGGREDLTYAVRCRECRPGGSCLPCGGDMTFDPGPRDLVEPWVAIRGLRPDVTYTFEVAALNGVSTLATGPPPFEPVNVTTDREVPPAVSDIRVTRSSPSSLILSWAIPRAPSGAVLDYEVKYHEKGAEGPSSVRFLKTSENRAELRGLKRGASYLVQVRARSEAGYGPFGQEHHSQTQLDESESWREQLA

T3: murine EphB4-Alkaline Phosphatase (murine, UniProt P54761 16-539)
T3 construct: also called EphB4-AP; EphB4 AP; not shown: alkaline phosphatase
T3 sequence (looked up): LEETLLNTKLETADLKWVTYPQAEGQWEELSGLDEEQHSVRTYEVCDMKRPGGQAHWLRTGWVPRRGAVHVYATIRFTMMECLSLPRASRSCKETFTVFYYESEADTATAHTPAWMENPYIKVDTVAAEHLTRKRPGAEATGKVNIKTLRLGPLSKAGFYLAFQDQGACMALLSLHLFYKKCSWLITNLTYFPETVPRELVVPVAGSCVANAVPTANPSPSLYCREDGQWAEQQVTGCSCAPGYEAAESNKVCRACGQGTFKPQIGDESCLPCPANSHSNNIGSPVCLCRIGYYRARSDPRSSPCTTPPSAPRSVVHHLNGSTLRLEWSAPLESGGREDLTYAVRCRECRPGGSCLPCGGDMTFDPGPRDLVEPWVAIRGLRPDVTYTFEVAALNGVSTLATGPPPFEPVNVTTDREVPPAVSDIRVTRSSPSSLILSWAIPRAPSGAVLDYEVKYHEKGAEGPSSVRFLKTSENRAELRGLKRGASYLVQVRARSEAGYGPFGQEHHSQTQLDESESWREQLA


Experiments:
[1] = biological target: T1, EphB4 (receptor of Table 1); test: EphB receptor specificity panel (% binding)
[2] = biological target: EphB6 (receptor of Table 1); test: EphB receptor specificity panel (% binding)
[3] = biological target: EphB3 (receptor of Table 1); test: EphB receptor specificity panel (% binding)
[4] = biological target: EphB2 (receptor of Table 1); test: EphB receptor specificity panel (% binding)
[5] = biological target: EphB1 (receptor of Table 1); test: EphB receptor specificity panel (% binding)
[6] = biological target: T1, EphB4 (receptor of Table 1); test: inhibition of ephrin-B2 AP binding to EphB4 (panning receptor)
murine EphB4 ectodomain = biological target: T2, murine EphB4 ectodomain; test: inhibition of murine ephrin-B2 AP binding to immobilised murine EphB4 ectodomain
[7] = biological target: T3, murine EphB4-Alkaline Phosphatase; test: ELISA binding curve: ephrin-B2 Fc immobilised, increasing volumes of murine EphB4 AP, OD405; one experiment
[8] = biological target: EphB2 (receptor of Table 1); test: inhibition of ephrin-B2 AP binding to EphB2 (panning receptor)

% Binding [1] [%] | % Binding [2] [%] | % Binding [3] [%] | % Binding [4] [%] | % Binding [5] [%] | IC50 [6] [µM] | IC50 (murine EphB4 ectodomain) [µM] | Kd [7] [µM] | IC50 [8] [µM] | Binder
100 | 7 | 9 | 8 | 9 | ~200 |  |  |  | DHNHNLYNPWRL (Panned on EphB4) [DHNHNLYNPWRL peptide (SEQ ID NO:21)]
0 | 0 | 5 | 100 | 86 |  |  |  |  | THWKFQPWALVT (Panned on EphB1) [THWKFQPWALVT peptide (SEQ ID NO:5)]
5 | 2 | 5 | 81 | 100 |  |  |  |  | DHWYYTPWQPIE (Panned on EphB2) [DHWYYTPWQPIE peptide (SEQ ID NO:9)]
 |  |  |  |  |  | > 10 |  |  | LFSPNGPIARAW [L-RAW peptide LFSPNGPIARAW (SEQ ID NO:42)]
20 | 26 | 85 | 89 | 100 |  |  |  |  | THWCHLLNCAAL (Panned on EphB2) [THWCHLLNCAAL peptide (SEQ ID NO:6)]
100 | 6 | 4 | 5 | 10 |  |  |  |  | GPVADAWLVYPR (Panned on EphB4) [GPVADAWLVYPR peptide (SEQ ID NO:32)]
100 | 30 | 23 | 23 | 22 | > 600 |  |  |  | EWYMKFPPEHYF (Panned on EphB4) [EWYMKFPPEHYF peptide (SEQ ID NO:19)]
100 | 3 | 1 | 2 | 1 |  |  |  |  | GPVERAWRPDLI (Panned on EphB4) [GPVERAWRPDLI peptide (SEQ ID NO:30)]
 |  |  |  |  |  |  | 0.0006 |  | ephrin-B2 Fc (Example 7) (Fc fusion, not shown: a dimerising Fc or GST; small tags and cut ends, also called ephrin B2 Fc protein; ephrin B2 Fc fusion protein) RSIVLEPIYWNSSNSKFLPGQGLVLYPQIGDKLDIICPKVDSKTVGQYEYYKVYMVDKDQADRCTIKKENTPLLNCARPDQDVKFTIKFQEFSPNLWGLEFQKNKDYYIISTSNGSLEGLDNQEGGVCQTRAMKILMKVGQDASSAGSARNHGPTRRPELEAGTNGRSSTTSPFVKPNPGSSTDGNSAGHSGNNLLGSEVALFA
100 | 16 | 14 | 13 | 13 |  |  |  |  | GPVSKAWQETET (Panned on EphB4) [GPVSKAWQETET peptide (SEQ ID NO:31)]
100 | 0 | 4 | 0 | 1 | > 500 |  |  |  | NPVIGPIQRAWT (Panned on EphB4) [NPVIGPIQRAWT peptide (SEQ ID NO:27)]
100 |  |  |  |  |  |  |  |  | IPWTQHMAMSPM (Panned on EphB4) [… peptide (SEQ ID NO:34)]
20 | 45 | 22 | 100 | 99 |  |  |  | > 100 | WHWTIEPFAITS (Panned on EphB2) [WHWTIEPFAITS peptide (SEQ ID NO:8)]
100 |  |  |  |  |  |  |  |  | SGHQLLLNKMPN (Panned on EphB4) [SGHQLLLNKMPN peptide (SEQ ID NO:35)]
22 | 0 | 22 | 100 | 18 |  |  |  |  | NHWPTQPYAIPI (Panned on EphB2) [NHWPTQPYAIPI peptide (SEQ ID NO:15)]
100 | 6 | 2 | 6 | 22 |  |  |  |  | SHVGPIMRAWAP (Panned on EphB4) [SHVGPIMRAWAP peptide (SEQ ID NO:28)]
6 | 10 | 9 | 100 | 98 |  |  |  |  | SHWPVLPFAHWQ (Panned on EphB2) [SHWPVLPFAHWQ peptide (SEQ ID NO:12)]

% Binding [1] [%] | % Binding [2] [%] | % Binding [3] [%] | % Binding [4] [%] | % Binding [5] [%] | IC50 [6] [µM] | IC50 (murine EphB4 ectodomain) [µM] | Kd [7] [µM] | IC50 [8] [µM] | Binder
13 | 15 | 31 | 100 | 54 |  |  |  |  | WHRYPDPRMLPT (Panned on EphB2) [WHRYPDPRMLPT peptide (SEQ ID NO:7)]
 |  |  |  |  |  | ~0.04 |  |  | NYLFSPNGPIARAW [NYL-RAW peptide NYLFSPNGPIARAW (SEQ ID NO:40)]
4 | 8 | 9 | 100 | 39 |  |  |  | > 100 | SHWPISPYSLLS (Panned on EphB2) [SHWPISPYSLLS peptide (SEQ ID NO:14)]
0 | 0 | 1 | 0 | 100 |  |  |  |  | TTLSQLPKSTWL (Panned on EphB1) [TTLSQLPKSTWL peptide (SEQ ID NO:2)]
100 | 7 | 16 | 6 | 4 |  |  |  |  | GPVHRAWEPTSH (Panned on EphB4) [GPVHRAWEPTSH peptide (SEQ ID NO:29)]
0 | 0 | 0 | 100 | 0 |  |  |  |  | WPPHWPRSLDYA (Panned on EphB2) [WPPHWPRSLDYA peptide (SEQ ID NO:17)]
 |  |  |  |  |  | ~0.04 |  |  | YLFSPNGPIARAW [YL-RAW peptide YLFSPNGPIARAW (SEQ ID NO:41)]
100 | 16 | 10 | 0 | 0 | > 100 |  |  |  | DALNDWLLFRPW (Panned on EphB4) [DALNDWLLFRPW peptide (SEQ ID NO:20)]
100 | 4 | 2 | 15 | 2 |  |  |  |  | LPHGPVAAAWDA (Panned on EphB4) [LPHGPVAAAWDA peptide (SEQ ID NO:26)]
0 | 1 | 1 | 97 | 100 |  |  |  |  | DHWRVSPYSLLY (Panned on EphB2) [DHWRVSPYSLLY peptide (SEQ ID NO:13)]
4 | 7 | 4 | 100 | 97 |  |  |  |  | IHWPVAPYSYLD (Panned on EphB2) [IHWPVAPYSYLD peptide (SEQ ID NO:11)]
100 | 11 | 11 | 8 | 13 | > 600 |  |  |  | FSPQGPAARNFA (Panned on EphB4) [FSPQGPAARNFA peptide (SEQ ID NO:25)]
100 | 14 | 20 | 17 | 16 |  |  |  |  | WGIPRAAQVMWT (Panned on EphB4) [WGIPRAAQVMWT peptide (SEQ ID NO:33)]
9 | 0 | 10 | 100 | 88 |  |  |  |  | SHKFPGPPSWMS (Panned on EphB1) [SHKFPGPPSWMS peptide (SEQ ID NO:4)]
0 | 0 | 7 | 100 | 4 |  |  |  |  | DHWPLLPYALAH (Panned on EphB2) [… peptide (SEQ ID NO:16)]
100 | 17 | 29 | 12 | 16 |  |  |  |  | EFFTWRPTYYGI (Panned on EphB4) [EFFTWRPTYYGI peptide (SEQ ID NO:23)]
1 | 3 | 4 | 100 | 53 |  |  |  | > 100 | DHWRILPFSLSS (Panned on EphB2) [DHWRILPFSLSS peptide (SEQ ID NO:10)]
